Measured values from patent US20240269292A1.
One block for each molecule: values may come before it. Non-standard residues stand in square brackets, D forms with d. No end group written: not given here. *: point of attachment. Dmt = Cc1cc(O)cc(C)c1C[C@H](N)C(=O)O; stearyl ester = CCCCCCCCCCCCCCCCCCO*

What was measured:
[1] = biological target: Albumin (Homo sapiens, UniProt P02768); assay: Fluorescence microscopy of complexation of FITC-labeled drug with particulates; type: binding
Text: (§1) As described herein, formation of MTT-prodrug-complex particulates can be verified experimentally by direct visualization. For example, the MTT-prodrug EY005-stearyl was fluorescently labeled with fluorescein isothiocyanate (FITC) and admixed with different complexation agents. The resultant mixture was then visualized under direct fluorescence microscopy. […] In contrast, FITC-labeled EY005-stearyl was not observed to form drug-complex particulates with silica microbeads (see FIG. 24A-24D), indicating the process of complexation and drug-complex particulate formation is highly dependent on favorable noncovalent interaction between drug and complexation agent.
(§2) Further, this noncovalent interaction is specifically mediated by the conjugation moiety of the MTT-prodrug. FITC-labeled EY005-stearyl that had been admixed with complexation agent was treated with an aqueous solution of carboxyesterase (0.1 μg/mL) to hydrolyze the ester bond of the prodrug, releasing the fluorescent peptide.
as §1, with “(FIG. 24C),” for “(see FIG. 24A-24D),”

[2] = as above; type: physicochemical; conditions: for Fluorescence after carboxyesterase: carboxyesterase 0.1 μg/mL
Text: as §1, §2
as §1, with “(FIG. 24C),” for “(see FIG. 24A-24D),”

[3] = system: T1, EY005-stearyl prodrug (H-d-Arg-DMT-Lys-Phe(-O)-stearyl)
T1 sequence: RYKF

[4] = type: physicochemical; conditions: EY005-stearyl solubilized in methyl laurate, incubated 1 hour, HPLC
[5] = biological target: Albumin; assay: pull-down by centrifugation in methyl laurate after 1 hour incubation, HPLC quantification; unitless ratio
[6] = biological target: Albumin; assay: pull-down by centrifugation in methyl laurate after 1 hour incubation, HPLC quantification

Molecule: FITC-labeled EY005-stearyl prodrug: MTT-prodrug EY005-stearyl fluorescently labeled with fluorescein isothiocyanate (FITC) ([dR][Dmt]KF-{stearyl ester}; also: FITC label, site not given here)
Complexation by fluorescence [1]: bright fluorescence
Fluorescence after carboxyesterase ([1]; carboxyesterase 0.1 μg/mL): reduced levels of fluorescence
Fluorescence after carboxyesterase ([2]; cyclodextrin): reduced levels of fluorescence
Fluorescence after carboxyesterase ([2]; lecithin): reduced levels of fluorescence
Fluorescence after carboxyesterase ([2]; magnesium stearate): reduced levels of fluorescence
Complexation by fluorescence ([2]; silica microbeads): no evidence of complexation
Fluorescence after carboxyesterase ([2]; silica microbeads): did not alter extremely low levels of fluorescence

Molecule: carboxyesterase
cleavage of the prodrug ester bond (HPLC) [3]: Incubation of EY005-stearyl with carboxyesterase produced rapid cleavage of the prodrug ester bond, releasing EY005

Molecule: OC[C@H]1O[C@@H]2O[C@H]3[C@H](O)[C@@H](O)[C@@H](O[C@H]4[C@H](O)[C@@H](O)[C@@H](O[C@H]5[C@H](O)[C@@H](O)[C@@H](O[C@H]6[C@H](O)[C@@H](O)[C@@H](O[C@H]7[C@H](O)[C@@H](O)[C@@H](O[C@H]8[C@H](O)[C@@H](O)[C@@H](O[C@H]9[C@H](O)[C@@H](O)[C@@H](O[C@H]1[C@H](O)[C@H]2O)O[C@@H]9CO)O[C@@H]8CO)O[C@@H]7CO)O[C@@H]6CO)O[C@@H]5CO)O[C@@H]4CO)O[C@@H]3CO [Cyclodextrin gamma]
μg EY005-stearyl complexed per mg complexation agent [4]: 2.3 μg per mg complexation agent

Molecule: FITC-labeled EY005 native peptide: EY005 native peptide labeled with fluorescein isothiocyanate ([dR][Dmt]KF-OH; also: FITC label, site not given here)
Complexation by fluorescence [1]: minimal complexation
Complexation by fluorescence ([2]; silica microbeads): interacted with silica microbeads creating fluorescent round figures

Calculated Kd ([unbound]/[bound] fraction of prodrug) [5]: 1.34
µg EY005-stearyl complexed per mg complexation agent (binding capacity) (µg per mg complexation agent) [6]: 4.5
Molecule: H-[dR][Dmt]KF-{stearyl ester} (also: DMT isomer not given here) [EY005-stearyl prodrug (H-d-Arg-DMT-Lys-Phe(-O)-stearyl)]
